Target: T1, human IL-12 (human, UniProt P29460 23-328; P29459 23-219)
T1 construct: also called Interleukin-12
T1 sequence 1: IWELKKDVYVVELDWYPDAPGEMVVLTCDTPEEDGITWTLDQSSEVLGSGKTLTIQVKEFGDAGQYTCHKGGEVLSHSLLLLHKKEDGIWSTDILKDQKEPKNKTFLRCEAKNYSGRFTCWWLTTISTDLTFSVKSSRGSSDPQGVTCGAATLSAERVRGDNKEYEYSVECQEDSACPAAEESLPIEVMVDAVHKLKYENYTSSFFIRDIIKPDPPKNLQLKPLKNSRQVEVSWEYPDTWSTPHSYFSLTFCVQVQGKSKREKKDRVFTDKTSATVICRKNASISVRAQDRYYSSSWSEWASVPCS
T1 sequence 2: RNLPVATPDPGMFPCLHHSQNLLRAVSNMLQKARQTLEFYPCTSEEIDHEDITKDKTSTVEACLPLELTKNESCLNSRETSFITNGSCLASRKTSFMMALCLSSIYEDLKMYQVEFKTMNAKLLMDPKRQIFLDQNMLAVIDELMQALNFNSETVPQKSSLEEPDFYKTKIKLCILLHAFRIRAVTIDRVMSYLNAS
Assay: SPR (Biacore T200), 37 C, pH 7.4; captured antibody, IL-12 analyte
Method: The affinity of anti-IL-12 antibodies binding to human IL-12 at pH 7.4 were determined at 37 degrees C. using Biacore T200 instrument (Cytiva). Anti-human Fc antibody (Cytiva) was immobilized onto all flow cells (FCs) of a CM4 sensor chip using amine coupling kit (Cytiva). All antibodies and analytes were prepared in ACES pH 7.4 containing 20 mM ACES, 150 mM NaCl, 0.05% Tween 20, 0.005% NaN₃. Each antibody was captured onto the sensor surface by anti-human Fc antibody. Antibody capture levels were aimed at 50 response unit (RU). 5 nM of human IL-12 were injected as analyte, followed by dissociation. Sensor surface was regenerated each cycle with 3M MgCl₂. […] Based on the results in Table 9, it is observed that binding kinetics of anti-IL-12 antibody AbI variants towards IL-12 were not drastically changed compared to control (−/−).

B1: Anti-IL-12 antibody Ab1 variant V37S VH/P44A, Y49A VL (antibody, name in Kabat numbering, V domains shown)
VH: QVQLVQSGAEVKKPGSSVKVSCKASGGTFSDYYLHWSRQAPGQGLEWMGWIDPENGDTEYAPKFQGRVTITADESTSTAYMELSSLRSEDTAVYYCARNKELRYFDVWGQGTLVTVSS
VL: DIVMTQSPLSLPVTPGEPASISCRASQSISINLHWYQQKPGQAARLLIAFASQSISGVPSRFSGSGSGTDFTLTISSLQPEDFATYYCQQSNSFPLTFGQGTKVEIKR
notes: Ab1 with VH/VL interface substitutions; Kabat numbering
- Kd: 2.96 nM

B2: Anti-IL-12 antibody Ab1 variant W103I VH/L46Q, Y49A VL (antibody, name in Kabat numbering)
heavy: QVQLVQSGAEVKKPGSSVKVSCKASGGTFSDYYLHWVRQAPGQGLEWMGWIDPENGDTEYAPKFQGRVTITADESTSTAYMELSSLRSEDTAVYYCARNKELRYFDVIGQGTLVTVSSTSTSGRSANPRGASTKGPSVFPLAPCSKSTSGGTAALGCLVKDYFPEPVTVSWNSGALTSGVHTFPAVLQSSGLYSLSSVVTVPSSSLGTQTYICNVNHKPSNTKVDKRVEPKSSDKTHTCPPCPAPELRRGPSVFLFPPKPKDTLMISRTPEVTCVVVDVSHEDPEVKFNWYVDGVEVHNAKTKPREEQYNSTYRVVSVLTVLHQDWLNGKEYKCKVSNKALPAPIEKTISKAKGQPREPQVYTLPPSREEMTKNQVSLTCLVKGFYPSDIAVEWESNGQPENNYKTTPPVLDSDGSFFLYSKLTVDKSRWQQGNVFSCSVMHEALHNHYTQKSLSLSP
light: DIVMTQSPLSLPVTPGEPASISCRASQSISINLHWYQQKPGQAPRQLIAFASQSISGVPSRFSGSGSGTDFTLTISSLQPEDFATYYCQQSNSFPLTFGQGTKVEIKRTVAAPSVFIFPPSDEQLKSGTASVVCLLNNFYPREAKVQWKVDNALQSGNSQESVTEQDSKDSTYSLSSTLTLSKADYEKHKVYACEVTHQGLSSPVTKSFNRGEC
notes: as for B1
- Kd: 4.86 nM

B3: Anti-IL-12 antibody Ab1 variant W103I VH/A43Q, Y49A VL (antibody, name in Kabat numbering)
heavy: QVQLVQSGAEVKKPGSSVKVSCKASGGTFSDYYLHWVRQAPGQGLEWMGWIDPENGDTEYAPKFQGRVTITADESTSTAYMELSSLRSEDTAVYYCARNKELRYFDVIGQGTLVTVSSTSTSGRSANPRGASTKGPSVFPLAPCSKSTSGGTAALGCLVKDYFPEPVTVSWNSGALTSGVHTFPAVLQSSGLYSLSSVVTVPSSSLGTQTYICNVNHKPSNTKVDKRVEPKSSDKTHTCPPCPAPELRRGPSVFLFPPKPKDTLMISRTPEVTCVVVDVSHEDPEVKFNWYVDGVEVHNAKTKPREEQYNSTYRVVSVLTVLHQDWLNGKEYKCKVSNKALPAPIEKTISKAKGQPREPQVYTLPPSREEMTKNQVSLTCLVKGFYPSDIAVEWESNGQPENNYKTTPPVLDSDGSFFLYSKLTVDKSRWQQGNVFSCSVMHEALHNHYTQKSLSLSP
light: DIVMTQSPLSLPVTPGEPASISCRASQSISINLHWYQQKPGQQPRLLIAFASQSISGVPSRFSGSGSGTDFTLTISSLQPEDFATYYCQQSNSFPLTFGQGTKVEIKRTVAAPSVFIFPPSDEQLKSGTASVVCLLNNFYPREAKVQWKVDNALQSGNSQESVTEQDSKDSTYSLSSTLTLSKADYEKHKVYACEVTHQGLSSPVTKSFNRGEC
notes: as for B1
- Kd: 1.6 nM

B4: Anti-IL-12 antibody Ab1 variant W103L VH/L46Q, Y49A VL (antibody, name in Kabat numbering)
heavy: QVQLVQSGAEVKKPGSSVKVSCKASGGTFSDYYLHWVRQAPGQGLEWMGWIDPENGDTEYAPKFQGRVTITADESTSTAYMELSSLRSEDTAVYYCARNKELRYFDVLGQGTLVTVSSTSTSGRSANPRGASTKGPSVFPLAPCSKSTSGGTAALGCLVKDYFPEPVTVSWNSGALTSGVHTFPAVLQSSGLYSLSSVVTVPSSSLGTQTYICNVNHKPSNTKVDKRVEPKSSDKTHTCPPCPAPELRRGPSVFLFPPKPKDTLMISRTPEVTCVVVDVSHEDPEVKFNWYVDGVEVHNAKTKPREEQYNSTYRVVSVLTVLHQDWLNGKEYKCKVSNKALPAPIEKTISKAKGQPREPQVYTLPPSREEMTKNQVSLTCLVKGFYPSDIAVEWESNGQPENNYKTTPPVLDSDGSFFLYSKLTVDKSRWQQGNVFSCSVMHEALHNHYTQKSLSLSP
light: DIVMTQSPLSLPVTPGEPASISCRASQSISINLHWYQQKPGQAPRQLIAFASQSISGVPSRFSGSGSGTDFTLTISSLQPEDFATYYCQQSNSFPLTFGQGTKVEIKRTVAAPSVFIFPPSDEQLKSGTASVVCLLNNFYPREAKVQWKVDNALQSGNSQESVTEQDSKDSTYSLSSTLTLSKADYEKHKVYACEVTHQGLSSPVTKSFNRGEC
notes: as for B1
- Kd: 3.86 nM

B5: Anti-IL-12 antibody Ab1 variant V37S, F100aI VH/A43Q, Y49A VL (antibody, name in Kabat numbering, V domains shown)
VH: QVQLVQSGAEVKKPGSSVKVSCKASGGTFSDYYLHWSRQAPGQGLEWMGWIDPENGDTEYAPKFQGRVTITADESTSTAYMELSSLRSEDTAVYYCARNKELRYIDVWGQGTLVTVSS
VL: DIVMTQSPLSLPVTPGEPASISCRASQSISINLHWYQQKPGQQPRLLIAFASQSISGVPSRFSGSGSGTDFTLTISSLQPEDFATYYCQQSNSFPLTFGQGTKVEIKR
notes: as for B1
- Kd: 1.12 nM

B6: Anti-IL-12 antibody Ab1 variant W103L VH/P44A, Y49A VL (antibody, name in Kabat numbering)
heavy: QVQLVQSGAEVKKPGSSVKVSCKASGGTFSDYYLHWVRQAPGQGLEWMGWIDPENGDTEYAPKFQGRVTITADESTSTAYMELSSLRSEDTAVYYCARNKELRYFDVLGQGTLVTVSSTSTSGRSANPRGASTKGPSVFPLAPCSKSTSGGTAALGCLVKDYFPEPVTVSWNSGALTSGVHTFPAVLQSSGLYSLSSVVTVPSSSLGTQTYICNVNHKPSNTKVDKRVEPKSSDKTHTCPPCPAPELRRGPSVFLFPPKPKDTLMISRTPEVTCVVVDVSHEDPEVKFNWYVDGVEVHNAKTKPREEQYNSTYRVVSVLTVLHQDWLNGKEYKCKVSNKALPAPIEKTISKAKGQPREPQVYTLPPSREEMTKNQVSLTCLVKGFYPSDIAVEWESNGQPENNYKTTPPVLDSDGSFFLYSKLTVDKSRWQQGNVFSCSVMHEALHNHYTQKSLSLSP
light: DIVMTQSPLSLPVTPGEPASISCRASQSISINLHWYQQKPGQAARLLIAFASQSISGVPSRFSGSGSGTDFTLTISSLQPEDFATYYCQQSNSFPLTFGQGTKVEIKRTVAAPSVFIFPPSDEQLKSGTASVVCLLNNFYPREAKVQWKVDNALQSGNSQESVTEQDSKDSTYSLSSTLTLSKADYEKHKVYACEVTHQGLSSPVTKSFNRGEC
notes: as for B1
- Kd: 1.34 nM

B7: Anti-IL-12 antibody Ab1 variant W103I VH/P44A, Y49A VL (antibody, name in Kabat numbering)
heavy: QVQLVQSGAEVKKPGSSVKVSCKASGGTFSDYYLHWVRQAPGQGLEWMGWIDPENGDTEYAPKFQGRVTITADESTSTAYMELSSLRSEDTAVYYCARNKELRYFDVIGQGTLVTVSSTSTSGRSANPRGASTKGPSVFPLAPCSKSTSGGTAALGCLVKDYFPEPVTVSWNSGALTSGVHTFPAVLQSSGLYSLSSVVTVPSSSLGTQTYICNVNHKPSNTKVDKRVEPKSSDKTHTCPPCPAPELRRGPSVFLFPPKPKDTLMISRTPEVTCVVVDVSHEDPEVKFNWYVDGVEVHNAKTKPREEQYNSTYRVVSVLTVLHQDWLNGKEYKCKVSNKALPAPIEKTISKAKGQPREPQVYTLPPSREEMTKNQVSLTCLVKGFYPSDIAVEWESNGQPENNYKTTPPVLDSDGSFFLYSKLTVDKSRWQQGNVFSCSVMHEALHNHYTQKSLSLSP
light: DIVMTQSPLSLPVTPGEPASISCRASQSISINLHWYQQKPGQAARLLIAFASQSISGVPSRFSGSGSGTDFTLTISSLQPEDFATYYCQQSNSFPLTFGQGTKVEIKRTVAAPSVFIFPPSDEQLKSGTASVVCLLNNFYPREAKVQWKVDNALQSGNSQESVTEQDSKDSTYSLSSTLTLSKADYEKHKVYACEVTHQGLSSPVTKSFNRGEC
notes: as for B1
- Kd: 1.57 nM

B8: Anti-IL-12 antibody Ab1 variant W103L VH/- (antibody, name in Kabat numbering)
heavy: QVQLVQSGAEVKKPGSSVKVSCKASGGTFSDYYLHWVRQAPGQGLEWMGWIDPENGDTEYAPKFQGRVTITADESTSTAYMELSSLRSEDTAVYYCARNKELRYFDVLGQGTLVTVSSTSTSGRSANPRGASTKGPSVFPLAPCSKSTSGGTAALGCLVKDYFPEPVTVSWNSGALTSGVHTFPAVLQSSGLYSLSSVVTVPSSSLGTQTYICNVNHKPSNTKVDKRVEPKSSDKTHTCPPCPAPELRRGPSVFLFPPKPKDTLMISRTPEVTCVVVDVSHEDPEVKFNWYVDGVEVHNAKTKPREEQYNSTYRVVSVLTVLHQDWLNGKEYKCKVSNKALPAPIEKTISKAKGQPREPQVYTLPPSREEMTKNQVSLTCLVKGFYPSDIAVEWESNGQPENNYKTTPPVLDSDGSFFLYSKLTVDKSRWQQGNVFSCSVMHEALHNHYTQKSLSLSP
light: DIVMTQSPLSLPVTPGEPASISCRASQSISINLHWYQQKPGQAPRLLIYFASQSISGVPSRFSGSGSGTDFTLTISSLQPEDFATYYCQQSNSFPLTFGQGTKVEIKRTVAAPSVFIFPPSDEQLKSGTASVVCLLNNFYPREAKVQWKVDNALQSGNSQESVTEQDSKDSTYSLSSTLTLSKADYEKHKVYACEVTHQGLSSPVTKSFNRGEC
notes: as for B1
- Kd: 0.549 nM

B9: Anti-IL-12 antibody Ab1 variant W103A VH/- (antibody, name in Kabat numbering)
heavy: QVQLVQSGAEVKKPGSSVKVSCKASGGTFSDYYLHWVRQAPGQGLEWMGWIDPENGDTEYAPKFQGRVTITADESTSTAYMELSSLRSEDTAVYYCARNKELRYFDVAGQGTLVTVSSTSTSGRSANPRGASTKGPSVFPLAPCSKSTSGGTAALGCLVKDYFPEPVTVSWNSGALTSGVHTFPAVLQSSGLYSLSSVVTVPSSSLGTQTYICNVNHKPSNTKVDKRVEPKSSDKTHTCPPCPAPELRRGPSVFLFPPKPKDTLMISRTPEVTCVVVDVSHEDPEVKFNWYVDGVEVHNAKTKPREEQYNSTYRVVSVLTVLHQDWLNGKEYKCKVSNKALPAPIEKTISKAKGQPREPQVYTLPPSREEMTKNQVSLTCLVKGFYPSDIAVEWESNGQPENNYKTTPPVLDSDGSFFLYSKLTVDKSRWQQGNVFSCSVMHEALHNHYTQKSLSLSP
light: DIVMTQSPLSLPVTPGEPASISCRASQSISINLHWYQQKPGQAPRLLIYFASQSISGVPSRFSGSGSGTDFTLTISSLQPEDFATYYCQQSNSFPLTFGQGTKVEIKRTVAAPSVFIFPPSDEQLKSGTASVVCLLNNFYPREAKVQWKVDNALQSGNSQESVTEQDSKDSTYSLSSTLTLSKADYEKHKVYACEVTHQGLSSPVTKSFNRGEC
notes: as for B1
- Kd: 0.331 nM

B10: Anti-IL-12 antibody Ab1 variant W103L VH/A43Q, Y49A VL (antibody, name in Kabat numbering)
heavy: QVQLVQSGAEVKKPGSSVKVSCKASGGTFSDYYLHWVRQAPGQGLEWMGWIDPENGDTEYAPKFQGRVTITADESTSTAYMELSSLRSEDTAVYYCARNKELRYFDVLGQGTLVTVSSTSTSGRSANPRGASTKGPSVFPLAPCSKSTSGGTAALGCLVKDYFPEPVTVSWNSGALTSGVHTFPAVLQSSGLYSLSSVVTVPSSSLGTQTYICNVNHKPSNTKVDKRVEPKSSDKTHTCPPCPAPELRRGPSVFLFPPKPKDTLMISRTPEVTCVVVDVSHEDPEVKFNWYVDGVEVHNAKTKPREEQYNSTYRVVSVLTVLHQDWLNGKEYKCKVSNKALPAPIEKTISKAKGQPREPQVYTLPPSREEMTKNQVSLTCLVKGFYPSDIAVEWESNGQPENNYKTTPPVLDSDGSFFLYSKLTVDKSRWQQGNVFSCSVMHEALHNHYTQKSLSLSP
light: DIVMTQSPLSLPVTPGEPASISCRASQSISINLHWYQQKPGQQPRLLIAFASQSISGVPSRFSGSGSGTDFTLTISSLQPEDFATYYCQQSNSFPLTFGQGTKVEIKRTVAAPSVFIFPPSDEQLKSGTASVVCLLNNFYPREAKVQWKVDNALQSGNSQESVTEQDSKDSTYSLSSTLTLSKADYEKHKVYACEVTHQGLSSPVTKSFNRGEC
notes: as for B1
- Kd: 1.12 nM

B11: Anti-IL-12 antibody Ab1 variant V37S VH/Y49A, F98L VL (antibody, name in Kabat numbering, V domains shown)
VH: QVQLVQSGAEVKKPGSSVKVSCKASGGTFSDYYLHWSRQAPGQGLEWMGWIDPENGDTEYAPKFQGRVTITADESTSTAYMELSSLRSEDTAVYYCARNKELRYFDVWGQGTLVTVSS
VL: DIVMTQSPLSLPVTPGEPASISCRASQSISINLHWYQQKPGQAPRLLIAFASQSISGVPSRFSGSGSGTDFTLTISSLQPEDFATYYCQQSNSFPLTLGQGTKVEIKR
notes: as for B1
- Kd: 0.982 nM

B12: Anti-IL-12 antibody Ab1 variant V37S, L45Q VH/A43Q, Y49A VL (antibody, name in Kabat numbering, V domains shown)
VH: QVQLVQSGAEVKKPGSSVKVSCKASGGTFSDYYLHWSRQAPGQGQEWMGWIDPENGDTEYAPKFQGRVTITADESTSTAYMELSSLRSEDTAVYYCARNKELRYFDVWGQGTLVTVSS
VL: DIVMTQSPLSLPVTPGEPASISCRASQSISINLHWYQQKPGQQPRLLIAFASQSISGVPSRFSGSGSGTDFTLTISSLQPEDFATYYCQQSNSFPLTFGQGTKVEIKR
notes: as for B1
- Kd: 3.13 nM

B13: Anti-IL-12 antibody Ab1 variant V37S, F100aI VH/L46Q, Y49A VL (antibody, name in Kabat numbering, V domains shown)
VH: QVQLVQSGAEVKKPGSSVKVSCKASGGTFSDYYLHWSRQAPGQGLEWMGWIDPENGDTEYAPKFQGRVTITADESTSTAYMELSSLRSEDTAVYYCARNKELRYIDVWGQGTLVTVSS
VL: DIVMTQSPLSLPVTPGEPASISCRASQSISINLHWYQQKPGQAPRQLIAFASQSISGVPSRFSGSGSGTDFTLTISSLQPEDFATYYCQQSNSFPLTFGQGTKVEIKR
notes: as for B1
- Kd: 2.98 nM

B14: Anti-IL-12 antibody Ab1 variant V37S, L45Q VH/Y49A, Y87M VL (antibody, name in Kabat numbering, V domains shown)
VH: QVQLVQSGAEVKKPGSSVKVSCKASGGTFSDYYLHWSRQAPGQGQEWMGWIDPENGDTEYAPKFQGRVTITADESTSTAYMELSSLRSEDTAVYYCARNKELRYFDVWGQGTLVTVSS
VL: DIVMTQSPLSLPVTPGEPASISCRASQSISINLHWYQQKPGQAPRLLIAFASQSISGVPSRFSGSGSGTDFTLTISSLQPEDFATYMCQQSNSFPLTFGQGTKVEIKR
notes: as for B1
- Kd: 2.92 nM

B15: Anti-IL-12 antibody Ab1 variant W103L VH/Y49A, Y87L VL (antibody, name in Kabat numbering)
heavy: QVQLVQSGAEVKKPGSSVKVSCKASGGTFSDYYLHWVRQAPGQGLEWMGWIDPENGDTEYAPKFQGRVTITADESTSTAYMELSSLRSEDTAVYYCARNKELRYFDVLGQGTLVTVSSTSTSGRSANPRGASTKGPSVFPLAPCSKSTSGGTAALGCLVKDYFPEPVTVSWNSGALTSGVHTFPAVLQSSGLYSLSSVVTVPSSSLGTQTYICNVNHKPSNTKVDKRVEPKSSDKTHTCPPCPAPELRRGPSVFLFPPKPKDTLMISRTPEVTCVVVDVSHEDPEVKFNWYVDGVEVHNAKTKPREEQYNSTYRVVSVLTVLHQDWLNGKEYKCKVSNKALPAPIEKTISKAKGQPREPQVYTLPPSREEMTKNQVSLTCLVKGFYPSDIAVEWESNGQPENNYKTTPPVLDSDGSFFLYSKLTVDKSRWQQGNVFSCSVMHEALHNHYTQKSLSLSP
light: DIVMTQSPLSLPVTPGEPASISCRASQSISINLHWYQQKPGQAPRLLIAFASQSISGVPSRFSGSGSGTDFTLTISSLQPEDFATYLCQQSNSFPLTFGQGTKVEIKRTVAAPSVFIFPPSDEQLKSGTASVVCLLNNFYPREAKVQWKVDNALQSGNSQESVTEQDSKDSTYSLSSTLTLSKADYEKHKVYACEVTHQGLSSPVTKSFNRGEC
notes: as for B1
- Kd: 1.51 nM

B16: Anti-IL-12 antibody Ab1 variant V37S, W103M VH/A43Q, Y49A VL (antibody, name in Kabat numbering)
heavy: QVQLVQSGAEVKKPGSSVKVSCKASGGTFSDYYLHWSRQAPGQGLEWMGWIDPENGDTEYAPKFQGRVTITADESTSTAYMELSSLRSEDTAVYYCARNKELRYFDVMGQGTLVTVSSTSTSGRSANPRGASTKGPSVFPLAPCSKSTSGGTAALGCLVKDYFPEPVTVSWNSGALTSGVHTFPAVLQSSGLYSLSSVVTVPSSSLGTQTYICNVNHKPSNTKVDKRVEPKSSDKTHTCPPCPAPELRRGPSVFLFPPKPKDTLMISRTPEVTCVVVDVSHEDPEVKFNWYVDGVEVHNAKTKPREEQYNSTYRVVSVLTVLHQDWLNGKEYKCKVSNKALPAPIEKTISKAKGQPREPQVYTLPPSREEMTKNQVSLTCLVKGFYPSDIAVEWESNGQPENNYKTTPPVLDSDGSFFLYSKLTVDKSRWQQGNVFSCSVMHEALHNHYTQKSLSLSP
light: DIVMTQSPLSLPVTPGEPASISCRASQSISINLHWYQQKPGQQPRLLIAFASQSISGVPSRFSGSGSGTDFTLTISSLQPEDFATYYCQQSNSFPLTFGQGTKVEIKRTVAAPSVFIFPPSDEQLKSGTASVVCLLNNFYPREAKVQWKVDNALQSGNSQESVTEQDSKDSTYSLSSTLTLSKADYEKHKVYACEVTHQGLSSPVTKSFNRGEC
notes: as for B1
- Kd: 0.828 nM

B17: Anti-IL-12 antibody Ab1 variant V37S VH/Y49A, Y87L VL (antibody, name in Kabat numbering, V domains shown)
VH: QVQLVQSGAEVKKPGSSVKVSCKASGGTFSDYYLHWSRQAPGQGLEWMGWIDPENGDTEYAPKFQGRVTITADESTSTAYMELSSLRSEDTAVYYCARNKELRYFDVWGQGTLVTVSS
VL: DIVMTQSPLSLPVTPGEPASISCRASQSISINLHWYQQKPGQAPRLLIAFASQSISGVPSRFSGSGSGTDFTLTISSLQPEDFATYLCQQSNSFPLTFGQGTKVEIKR
notes: as for B1
- Kd: 3.04 nM

B18: Anti-IL-12 antibody Ab1 variant V37S, Y91M VH/A43Q, Y49A VL (antibody, name in Kabat numbering, V domains shown)
VH: QVQLVQSGAEVKKPGSSVKVSCKASGGTFSDYYLHWSRQAPGQGLEWMGWIDPENGDTEYAPKFQGRVTITADESTSTAYMELSSLRSEDTAVYMCARNKELRYFDVWGQGTLVTVSS
VL: DIVMTQSPLSLPVTPGEPASISCRASQSISINLHWYQQKPGQQPRLLIAFASQSISGVPSRFSGSGSGTDFTLTISSLQPEDFATYYCQQSNSFPLTFGQGTKVEIKR
notes: as for B1
- Kd: 1.79 nM

B19: Anti-IL-12 antibody Ab1 variant V37S, Y91M VH/L46Q, Y49A VL (antibody, name in Kabat numbering, V domains shown)
VH: QVQLVQSGAEVKKPGSSVKVSCKASGGTFSDYYLHWSRQAPGQGLEWMGWIDPENGDTEYAPKFQGRVTITADESTSTAYMELSSLRSEDTAVYMCARNKELRYFDVWGQGTLVTVSS
VL: DIVMTQSPLSLPVTPGEPASISCRASQSISINLHWYQQKPGQAPRQLIAFASQSISGVPSRFSGSGSGTDFTLTISSLQPEDFATYYCQQSNSFPLTFGQGTKVEIKR
notes: as for B1
- Kd: 3.44 nM

— patent publication US20240343771A1 (Chugai, published 2024)
